Assay results from patent US20220169728A1 (AB THERAPEUTICS, published 2022).
Changes are numbered by the printed parent chain. Names may count otherwise.

B1: CD20/CD3 BsMab with common VL (SEQ ID NO: 3) N93P (bispecific antibody, V domains shown)
VH 1: QVQLQQPGAELVKPGASVKMSCKASGYTFTSYNMHWVKQTPGRGLEWIGAIYPGNGDTSYNQKFKGKATLTADKSSSTAYMQLSSLRSEDSAVYYCARSTYYGGDWYFNVWGAGTTVTVSA
VH 2: EVQLQESGAELARPGASVKMSCKASGYTFTSYTMHWVKQRPGEGLEWIGYINPSSGYTKYNQKFKDKATLTADKSSSTAYMELSSLTSEDSAVYYCARWQDYDVYFDYWGEGTTLTVSS
VL: QIVLSQSPAILSASPGEKVTMTCRASSSVSYIHWFQQKPGSSPKPWIYATSNLASGVPVRFSGSGSGTSYSLTISRVEAEDAATYYCQQWTSPPPTFGGGTKLEIKR
B2: CD20/CD3 BsMab with common VL (SEQ ID NO: 3) N93T (bispecific antibody, V domains shown)
VH 1: B1 VH 1
VH 2: B1 VH 2
VL: B1 VL with P93T
B3: CD20/CD3 BsMab with common VL (SEQ ID NO: 3) N93V (bispecific antibody, V domains shown)
VH 1: B1 VH 1
VH 2: B1 VH 2
VL: B1 VL with P93V
B4: CD20/CD3 BsMab with common VL (SEQ ID NO: 3) N93G (bispecific antibody, V domains shown)
VH 1: B1 VH 1
VH 2: B1 VH 2
VL: B1 VL with P93G
B5: CD20/CD3 BsMab with common VL (SEQ ID NO: 3) N93Q (bispecific antibody, V domains shown)
VH 1: B1 VH 1
VH 2: B1 VH 2
VL: B1 VL with P93Q
B6: CD20/CD3 BsMab with common VL (SEQ ID NO: 3) N93A (bispecific antibody, V domains shown)
VH 1: B1 VH 1
VH 2: B1 VH 2
VL: B1 VL with P93A
B7: CD20/CD3 BsMab with common VL (SEQ ID NO: 3) N93Y (bispecific antibody, V domains shown)
VH 1: B1 VH 1
VH 2: B1 VH 2
VL: B1 VL with P93Y
B8: CD20/CD3 BsMab with common VL (SEQ ID NO: 3) N93F (bispecific antibody, V domains shown)
VH 1: B1 VH 1
VH 2: B1 VH 2
VL: B1 VL with P93F
B9: CD20/CD3 BsMab with common VL (SEQ ID NO: 3) P95V (bispecific antibody, V domains shown)
VH 1: B1 VH 1
VH 2: B1 VH 2
VL: B1 VL with P93N, P95V
B10: CD20/CD3 BsMab with common VL (SEQ ID NO: 3) P95A (bispecific antibody, V domains shown)
VH 1: B1 VH 1
VH 2: B1 VH 2
VL: B1 VL with P93N, P95A
B11: CD20/CD3 BsMab with common VL (SEQ ID NO: 3) P95T (bispecific antibody, V domains shown)
VH 1: B1 VH 1
VH 2: B1 VH 2
VL: B1 VL with P93N, P95T
B12: CD20/CD3 BsMab with common VL (SEQ ID NO: 3) P95Q (bispecific antibody, V domains shown)
VH 1: B1 VH 1
VH 2: B1 VH 2
VL: B1 VL with P93N, P95Q
B13: CD20/CD3 BsMab with common VL (SEQ ID NO: 3) H33L (bispecific antibody, V domains shown)
VH 1: B1 VH 1
VH 2: B1 VH 2
VL: B1 VL with H33L, P93N
B14: CD20/CD3 BsMab with common VL (SEQ ID NO: 3) H33R (bispecific antibody, V domains shown)
VH 1: B1 VH 1
VH 2: B1 VH 2
VL: B1 VL with H33R, P93N
B15: CD20/CD3 BsMab with common VL (SEQ ID NO: 3) H33P (bispecific antibody, V domains shown)
VH 1: B1 VH 1
VH 2: B1 VH 2
VL: B1 VL with H33P, P93N
B16: CD20/CD3 BsMab with common VL (SEQ ID NO: 3) N93S (bispecific antibody, V domains shown)
VH 1: B1 VH 1
VH 2: B1 VH 2
VL: B1 VL with P93S
B17: CD20/CD3 BsMab with common VL (SEQ ID NO: 3) H33W (bispecific antibody, V domains shown)
VH 1: B1 VH 1
VH 2: B1 VH 2
VL: B1 VL with H33W, P93N
B18: CD20/CD3 BsMab with common VL (SEQ ID NO: 3) H33A (bispecific antibody, V domains shown)
VH 1: B1 VH 1
VH 2: B1 VH 2
VL: B1 VL with H33A, P93N
B19: CD20/CD3 BsMab with common VL (SEQ ID NO: 3) H33G (bispecific antibody, V domains shown)
VH 1: B1 VH 1
VH 2: B1 VH 2
VL: B1 VL with H33G, P93N

target: CD3 (Homo sapiens (Human), UniProt P07766 23-207; P04234 22-171; P09693 23-182); experiment: cell-based or functional assay
Sequence (P07766 23-207 limits assumed, chain 1 of 3): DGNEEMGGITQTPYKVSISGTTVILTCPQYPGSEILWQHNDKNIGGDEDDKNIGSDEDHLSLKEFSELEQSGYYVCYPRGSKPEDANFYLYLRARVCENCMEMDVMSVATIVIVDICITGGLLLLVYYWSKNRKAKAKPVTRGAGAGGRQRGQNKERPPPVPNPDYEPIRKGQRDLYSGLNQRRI
Sequence (P04234 22-171 limits assumed, chain 2 of 3): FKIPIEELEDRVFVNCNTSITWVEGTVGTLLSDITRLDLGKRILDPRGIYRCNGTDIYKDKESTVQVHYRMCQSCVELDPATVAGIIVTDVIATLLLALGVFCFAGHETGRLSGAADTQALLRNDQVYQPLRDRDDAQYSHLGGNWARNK
Sequence (P09693 23-182 limits assumed, chain 3 of 3): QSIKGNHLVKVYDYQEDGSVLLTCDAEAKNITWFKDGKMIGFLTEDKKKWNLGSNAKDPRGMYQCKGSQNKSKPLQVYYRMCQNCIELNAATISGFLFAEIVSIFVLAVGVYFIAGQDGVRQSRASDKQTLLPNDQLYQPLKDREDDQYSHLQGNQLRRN

In order of rising “Function % 0.025 ug/ml (T cell activation, CD69 on Jurkat cells with Raji cells, against the unmutated baseline)” value:
1. B1  9%
2. B14  9%
3. B5  10%
4. B8  11%
5. B12  11%
6. B6  12%
7. B7  12%
8. B11  13%
9. B17  14%
10. B4  15%
11. B16  15%
12. B13  16%
13. B10  19%
14. B2  21%
15. B3  33%
16. B15  34%
17. B18  65%
18. B9  96%
19. B19  100%

In order of rising “Function % 2 ug/ml (T cell activation, CD69 on Jurkat cells with Raji cells, against the unmutated baseline)” value:
1. B12  17%
2. B4  21%
3. B7  22%
4. B1  51%
5. B11  52%
6. B14  54%
7. B5  62%
8. B8  70%
9. B6  80%
10. B17  87%
11. B16  90%
12. B10  92%
13. B13  93%
14. B15  94%
15. B3  95%
16. B9  97%
17. B2  98%
18. B19  101%
19. B18  104%
